Test results: IntAct's records for PubMed 29892012

B1: Coiled-coil alpha-helical rod protein 1 (Homo sapiens), Q8TD31 (parent)
chain: MFPPSGSTGLIPPSHFQARPLSTLPRMAPTWLSDIPLVQPPGHQDVSERRLDTQRPQVTMWERDVSSDRQEPGRRGRSWGLEGSQALSQQAEVIVRQLQELRRLEEEVRLLRETSLQQKMRLEAQAMELEALARAEKAGRAEAEGLRAALAGAEVVRKNLEEGSQRELEEVQRLHQEQLSSLTQAHEEALSSLTSKAEGLEKSLSSLETRRAGEAKELAEAQREAELLRKQLSKTQEDLEAQVTLVENLRKYVGEQVPSEVHSQTWELERQKLLETMQHLQEDRDSLHATAELLQVRVQSLTHILALQEEELTRKVQPSDSLEPEFTRKCQSLLNRWREKVFALMVQLKAQELEHSDSVKQLKGQVASLQEKVTSQSQEQAILQRSLQDKAAEVEVERMGAKGLQLELSRAQEARRRWQQQTASAEEQLRLVVNAVSSSQIWLETTMAKVEGAAAQLPSLNNRLSYAVRKVHTIRGLIARKLALAQLRQESCPLPPPVTDVSLELQQLREERNRLDAELQLSARLIQQEVGRAREQGEAERQQLSKVAQQLEQELQQTQESLASLGLQLEVARQGQQESTEEAASLRQELTQQQELYGQALQEKVAEVETRLREQLSDTERRLNEARREHAKAVVSLRQIQRRAAQEKERSQELRRLQEEARKEEGQRLARRLQELERDKNLMLATLQQEGLLSRYKQQRLLTVLPSLLDKKKSVVSSPRPPECSASAPVAAAVPTRESIKGSLSVLLDDLQDLSEAISKEEAVCQGDNLDRCSSSNPQMSS
partner: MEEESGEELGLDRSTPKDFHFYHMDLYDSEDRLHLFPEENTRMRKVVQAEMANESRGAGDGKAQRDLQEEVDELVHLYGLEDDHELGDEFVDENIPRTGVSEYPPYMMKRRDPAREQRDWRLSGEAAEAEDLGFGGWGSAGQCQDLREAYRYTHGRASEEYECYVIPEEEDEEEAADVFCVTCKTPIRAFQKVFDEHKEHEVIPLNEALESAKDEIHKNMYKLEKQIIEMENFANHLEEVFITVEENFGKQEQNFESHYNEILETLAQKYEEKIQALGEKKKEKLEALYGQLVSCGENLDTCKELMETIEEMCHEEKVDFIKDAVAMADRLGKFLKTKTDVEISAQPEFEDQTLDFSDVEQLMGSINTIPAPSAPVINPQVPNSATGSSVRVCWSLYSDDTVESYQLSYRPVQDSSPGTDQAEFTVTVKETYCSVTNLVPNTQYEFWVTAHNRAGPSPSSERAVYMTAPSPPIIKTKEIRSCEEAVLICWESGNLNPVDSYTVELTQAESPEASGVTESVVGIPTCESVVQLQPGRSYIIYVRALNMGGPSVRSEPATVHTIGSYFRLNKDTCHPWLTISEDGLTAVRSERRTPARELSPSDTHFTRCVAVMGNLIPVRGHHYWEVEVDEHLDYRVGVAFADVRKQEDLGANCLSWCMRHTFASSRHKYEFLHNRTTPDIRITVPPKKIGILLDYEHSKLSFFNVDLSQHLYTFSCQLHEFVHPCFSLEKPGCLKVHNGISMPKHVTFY
B2: Coiled-coil alpha-helical rod protein 1 (Homo sapiens), Q8TD31 (parent)
chain: B1 chain
partner: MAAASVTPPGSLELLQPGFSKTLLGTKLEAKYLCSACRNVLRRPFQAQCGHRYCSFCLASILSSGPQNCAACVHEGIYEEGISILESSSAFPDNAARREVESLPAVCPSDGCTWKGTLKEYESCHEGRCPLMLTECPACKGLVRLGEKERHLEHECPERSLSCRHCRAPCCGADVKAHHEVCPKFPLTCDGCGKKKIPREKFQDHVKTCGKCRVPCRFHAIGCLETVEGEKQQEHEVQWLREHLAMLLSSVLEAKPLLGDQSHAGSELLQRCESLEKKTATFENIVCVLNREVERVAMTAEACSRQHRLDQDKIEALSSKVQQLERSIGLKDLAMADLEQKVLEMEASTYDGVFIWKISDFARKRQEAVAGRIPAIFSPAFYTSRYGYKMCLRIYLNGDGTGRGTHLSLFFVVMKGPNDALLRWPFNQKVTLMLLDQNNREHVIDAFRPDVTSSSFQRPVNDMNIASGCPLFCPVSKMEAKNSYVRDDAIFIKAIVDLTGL
B3: Transcription factor RFX3 (Homo sapiens), P48380 (parent)
chain: MQTSETGSDTGSTVTLQTSVASQAAVPTQVVQQVPVQQQVQQVQTVQQVQHVYPAQVQYVEGSDTVYTNGAIRTTTYPYTETQMYSQNTGGNYFDTQGSSAQVTTVVSSHSMVGTGGIQMGVTGGQLISSSGGTYLIGNSMENSGHSVTHTTRASPATIEMAIETLQKSDGLSTHRSSLLNSHLQWLLDNYETAEGVSLPRSTLYNHYLRHCQEHKLDPVNAASFGKLIRSIFMGLRTRRLGTRGNSKYHYYGIRVKPDSPLNRLQEDMQYMAMRQQPMQQKQRYKPMQKVDGVADGFTGSGQQTGTSVEQTVIAQSQHHQQFLDASRALPEFGEVEISSLPDGTTFEDIKSLQSLYREHCEAILDVVVNLQFSLIEKLWQTFWRYSPSTPTDGTTITESSNLSEIESRLPKAKLITLCKHESILKWMCNCDHGMYQALVEILIPDVLRPIPSALTQAIRNFAKSLEGWLSNAMNNIPQRMIQTKVAAVSAFAQTLRRYTSLNHLAQAARAVLQNTSQINQMLSDLNRVDFANVQEQASWVCQCDDNMVQRLETDFKMTLQQQSTLEQWAAWLDNVMMQALKPYEGRPSFPKAARQFLLKWSFYSSMVIRDLTLRSAASFGSFHLIRLLYDEYMFYLVEHRVAQATGETPIAVMGEFGDLNAVSPGNLDKDEGSEVESEMDEELDDSSEPQAKREKTELSQAFPVGCMQPVLETGVQPSLLNPIHSEHIVTSTQTIRQCSATGNTYTAV
partner: B2 partner

Variants of: B1
Settings: with fsd2_human FSD2, A1L4K1

Variant	effect of a mutation on the interaction
W337R	with no effect

Variants of: B2
Settings: with traf2_human TRAF2, Q12933

Variant	effect of a mutation on the interaction
W337R	disrupting interaction strength

Variants of: B3
Settings: with traf2_human TRAF2, Q12933

Variant	effect of a mutation on the interaction
S387C	with no effect
